Reference: publication PMC12154184, “An Anti-BCMA Affibody Affinity Protein for Therapeutic and Diagnostic Use in Multiple Myeloma” (International Journal of Molecular Sciences, 2025)

Target: T1, human APRIL (A Proliferation Inducing Ligand) (human, UniProt O75888 105-250)
T1 construct: No catalogue number is printed; also called hAPRIL; source: bought: R&D Systems
T1 sequence (looked up): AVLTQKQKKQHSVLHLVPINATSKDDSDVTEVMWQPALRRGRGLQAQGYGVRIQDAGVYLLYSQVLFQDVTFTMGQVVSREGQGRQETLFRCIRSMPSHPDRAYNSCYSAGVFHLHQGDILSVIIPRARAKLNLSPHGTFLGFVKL
Experiment: SPR; blocking assay, Biacore T200; human BCMA-rFc immobilised; 1 µM 1-E6 (affibody-His6) or running buffer injected first, then 100 nM APRIL or 25 nM belantamab; PBS-T
Conditions: both partners purified

- binding result: binds
B1: recombinant human BCMA extracellular domain fused to the Fc portion of rabbit IgG (BCMA-rFc) (Fc fusion, UniProt Q02223 5-50, looked up)
chain: AGQCSQNEYFDSLLHACIPCQLRCSSNTPPLTCQRYCNASVTNSVK
notes: human B Cell Maturation Antigen (BCMA, TNFRSF17, CD269), residues 5-50 containing the ECD as told in the results; the methods give residues 1-54 of UniProt Q02223 for the biotinylated selection antigen (cat. no. 10620-H03H-B); no range is printed for 10620-H15H itself; The discussion speaks of 45 residues; also called human BCMA-rFc; immobilised BCMA; source: bought: Sino Biological (cat. no. …)
